# Data from patent publication US20220119553A1 (Sanofi, published 2022).
# B1: Binding Protein 5 (other)
# heavy 1: QVQLVQSGAEVAKPGTSVKLSCKASGYTFTDYWMQWVKQRPGQGLEWIGTIYPGDGDTGYAQKFQGKATLTADKSSKTVYMHLSSLASEDSAVYYCARGDYYGSNSLDYWGQGTSVTVSSASTKGPSVFPLAPCSRSTSESTAALGCLVKDYFPEPVTVSWNSGALTSGVHTFPAVLQSSGLYSLSSVVTVPSSSLGTKTYTCNVDHKPSNTKVDKRVESKYGPPCPPCPAPEFLGGPSVFLFPPKPKDTLMISRTPEVTCVVVDVSQEDPEVQFNWYVDGVEVHNAKTKPREEQFNSTYRVVSVLTVLHQDWLNGKEYKCKVSNKGLPSSIEKTISKAKGQPREPQVYTLPPCQEEMTKNQVSLWCLVKGFYPSDIAVEWESNGQPENNYKTTPPVLDSDGSFFLYSKLTVDKSRWQEGNVFSCSVMHEALHNHYTQKSLSLSLGK
# light 1: DIVMTQSHLSMSTSLGDPVSITCKASQDVSTVVAWYQQKPGQSPRRLIYSASYRYIGVPDRFTGSGAGTDFTFTISSVQAEDLAVYYCQQHYSPPYTFGGGTKLEIKRTVAAPSVFIFPPSDEQLKSGTASVVCLLNNFYPREAKVQWKVDNALQSGNSQESVTEQDSKDSTYSLSSTLTLSKADYEKHKVYACEVTHQGLSSPVTKSFNRGEC
# heavy 2: QVQLVQSGAEVVKPGASVKVSCKASGYTFTSYYIHWVRQAPGQGLEWIGSIYPGNVNTNYAQKFQGRATLTVDTSISTAYMELSRLRSDDTAVYYCTRSHYGLDWNFDVWGKGTTVTVSSSQVQLVESGGGVVQPGRSLRLSCAASGFTFTKAWMHWVRQAPGKQLEWVAQIKDKSNSYATYYADSVKGRFTISRDDSKNTLYLQMNSLRAEDTAVYYCRGVYYALSPFDYWGQGTLVTVSSRTASTKGPSVFPLAPCSRSTSESTAALGCLVKDYFPEPVTVSWNSGALTSGVHTFPAVLQSSGLYSLSSVVTVPSSSLGTKTYTCNVDHKPSNTKVDKRVESKYGPPCPPCPAPEFLGGPSVFLFPPKPKDTLMISRTPEVTCVVVDVSQEDPEVQFNWYVDGVEVHNAKTKPREEQFNSTYRVVSVLTVLHQDWLNGKEYKCKVSNKGLPSSIEKTISKAKGQPREPQVCTLPPSQEEMTKNQVSLSCAVKGFYPSDIAVEWESNGQPENNYKTTPPVLDSDGSFFLVSKLTVDKSRWQEGNVFSCSVMHEALHNHYTQKSLSLSLGK
# light 2: DIVMTQTPLSLSVTPGQPASISCKSSQSLVHNNANTYLSWYLQKPGQSPQSLIYKVSNRFSGVPDRFSGSGSGTDFTLKISRVEAEDVGVYYCGQGTQYPFTFGSGTKVEIKGQPKAAPDIQMTQSPSSLSASVGDRVTITCQASQNIYVWLNWYQQKPGKAPKLLIYKASNLHTGVPSRFSGSGSGTDFTLTISSLQPEDIATYYCQQGQTYPYTFGQGTKLEIKTKGPSRTVAAPSVFIFPPSDEQLKSGTASVVCLLNNFYPREAKVQWKVDNALQSGNSQESVTEQDSKDSTYSLSSTLTLSKADYEKHKVYACEVTHQGLSSPVTKSFNRGEC
# B2: Binding Protein 16 (bispecific antibody, human IgG1, kappa, lambda)
# heavy 1: not shown
# light 1: DIVLTQSPASLAVSLGQRATISCRASESVDSYGQSYMHWYQQKAGQPPKLLIYLASNLESGVPARFSGSGSRTDFTLTIDPVQAEDAATYYCQQNAEDSRTFGGGTKLEIKGQPKAAPSVTLFPPSSEELQANKATLVCLISDFYPGAVTVAWKADSSPVKAGVETTTPSKQSNNKYAASSYLSLTPEQWKSHRSYSCQVTHEGSTVEKTVAPTECS
# heavy 2: not shown
# light 2: not shown
# notes: Bispecific trivalent (CODV-Fab) × Fab-IgG1 Fc; two IL13 sites, one IL4 site; also called IL13 × (IL13 × IL4); (anti-IL13 × anti-IL4) × anti-IL13
# B3: Binding Protein 17 (bispecific antibody, human IgG1, kappa, lambda)
# heavy 1: not shown
# light 1: DIQMTQSPASLSVSVGDTITLTCHASQNIDVWLSWFQQKPGNIPKLLIYKASNLHTGVPSRFSGSGSGTGFTLTISSLQPEDIATYYCQQAHSYPFTFGGGTKLEIKGQPKAAPSVTLFPPSSEELQANKATLVCLISDFYPGAVTVAWKADSSPVKAGVETTTPSKQSNNKYAASSYLSLTPEQWKSHRSYSCQVTHEGSTVEKTVAPTECS
# heavy 2: not shown
# light 2: not shown
# notes: Bispecific trivalent (CODV-Fab) × Fab-IgG1 Fc; two IL4 sites, one IL13 site; also called IL4 × (IL13 × IL4); (anti-IL13 × anti-IL4) × anti-IL4
# B4: Binding Protein 18 (bispecific antibody, human IgG1, kappa, lambda)
# heavy 1: not shown
# light 1: B2 light 1
# heavy 2: not shown
# light 2: not shown
# notes: Bispecific trivalent (CODV-Fab) × Fab-IgG1 Fc; two IL13 sites, one IL4 site; also called IL13 × (IL4 × IL13); (anti-IL4 × anti-IL13) × anti-IL13
# B5: Binding Protein 19 (bispecific antibody, human IgG1, kappa, lambda)
# heavy 1: not shown
# light 1: B3 light 1
# heavy 2: not shown
# light 2: not shown
# notes: Bispecific trivalent (CODV-Fab) × Fab-IgG1 Fc; two IL4 sites, one IL13 site; also called IL4 × (IL4 × IL13); (anti-IL4 × anti-IL13) × anti-IL4
# B6: Binding Protein 3 (other)
# heavy 1: QVQLVQSGAEVKKPGSSVKVSCKASGYAFSSYWMNWVRQAPGQGLEWIGQIWPGDGDTNYNQKFKGRATLTADESTSTAYMELSSLRSEDTAVYYCARRETTTVGRYYYAMDYWGQGTTVTVSSASTKGPSVFPLAPCSRSTSESTAALGCLVKDYFPEPVTVSWNSGALTSGVHTFPAVLQSSGLYSLSSVVTVPSSSLGTKTYTCNVDHKPSNTKVDKRVESKYGPPCPPCPAPEFLGGPSVFLFPPKPKDTLMISRTPEVTCVVVDVSQEDPEVQFNWYVDGVEVHNAKTKPREEQFNSTYRVVSVLTVLHQDWLNGKEYKCKVSNKGLPSSIEKTISKAKGQPREPQVYTLPPCQEEMTKNQVSLWCLVKGFYPSDIAVEWESNGQPENNYKTTPPVLDSDGSFFLYSKLTVDKSRWQEGNVFSCSVMHEALHNHYTQKSLSLSLGK
# light 1: DLVLTQSPASLAVSPGQRATITCKASQSVDYDGDSYLNWYQQKPGQPPKLLIYDASNLVSGVPARFSGSGSGTDFTLTINPVEANDTANYYCQQSTEDPWTFGQGTKLEIKRTVAAPSVFIFPPSDEQLKSGTASVVCLLNNFYPREAKVQWKVDNALQSGNSQESVTEQDSKDSTYSLSSTLTLSKADYEKHKVYACEVTHQGLSSPVTKSFNRGEC
# heavy 2: B1 heavy 2
# light 2: B1 light 2
# notes: Trispecific antibody of four chains, IgG4: anti-CD19 Fab arm (knob) and CODV arm anti-CD28 x anti-CD3 (hole); also called anti-CD19×CD28×CD3 IgG4 trispecific antibody; CD19 × (CD28 × CD3)
# Target: CD38 on human multiple myeloma cells (human, UniProt P28907 1-300)
# Experiment: cell-based or functional assay
row,Binder,"EC50 (pM), antibody-mediated cell killing of RPMI8226 cells"
1,B1,0.379 pM

# Target: T1, recombinant human IL4 (human, UniProt P05112 25-153)
# T1 sequence (looked up): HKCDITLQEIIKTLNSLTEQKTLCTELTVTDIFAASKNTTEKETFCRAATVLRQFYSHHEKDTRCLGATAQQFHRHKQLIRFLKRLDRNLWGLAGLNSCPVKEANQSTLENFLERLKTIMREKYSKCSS
# Experiment: cell-based or functional assay
row,Binder,IL4 IC50 (HEK Blue reporter assay)
1,B2,0.013 µg/mL
2,B3,0.00862 µg/mL
3,B4,0.0146 µg/mL
4,B5,0.00573 µg/mL

# Target: T1, recombinant human IL4
# Experiment: SPR (BIACORE 3000), antibody captured, human IL4 as analyte
Binder,Kd,No. of ILs Bound,kDa Bound,koff,kon
B2,5.88 pM,1,17 kDa,0.00028 s⁻¹,4.77e+07 M⁻¹ s⁻¹
B3,2.4 pM,2,35 kDa,0.00076 s⁻¹,3.16e+08 M⁻¹ s⁻¹
B4,10.2 pM,1,18 kDa,0.000359 s⁻¹,3.52e+07 M⁻¹ s⁻¹
B5,4.65 pM,2,34 kDa,0.000385 s⁻¹,8.27e+07 M⁻¹ s⁻¹

# Target: T2, human CD19 (ELISA antigen) (human, UniProt P15391 20-291, limits assumed)
# T2 sequence (looked up): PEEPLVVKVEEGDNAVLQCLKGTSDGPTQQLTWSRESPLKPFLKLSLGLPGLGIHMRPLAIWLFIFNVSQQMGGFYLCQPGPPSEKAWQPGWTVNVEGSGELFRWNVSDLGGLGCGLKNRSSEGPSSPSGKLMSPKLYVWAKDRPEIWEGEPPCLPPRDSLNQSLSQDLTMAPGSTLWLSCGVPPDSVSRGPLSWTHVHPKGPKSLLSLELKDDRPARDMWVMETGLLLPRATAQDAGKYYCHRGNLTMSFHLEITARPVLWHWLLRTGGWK
# Experiment: ELISA on coated antigen, detection with HRP-conjugated anti-Fab secondary antibody, OD450
# Protocol: The coated plate was blocked using 5% skim milk+2% BSA in PBS for one hour at RT, followed by washing with PBS+0.25% Tween 20 three times (Aqua Max 400, Molecular Devices). Serial dilution of antibodies (trispecific and control Abs) were prepared and added onto the ELISA plates (100 μl/well in duplicate), incubated at RT for one hour, followed by washing 5 times with PBS+0.25% Tween 20.
# The reaction was terminated by adding 50 μl 1M H₂SO₄, and OD₄₅₀ was measured using SpectraMax M5 (Molecular Devices) and analyzed using SoftMax Pro6.3 software (Molecular Devices). […] EC50 was calculated using the same software.
row,Binder,binding result
1,B6,binds
